# B1: naturally occurring β-secretase purified from human brain (protein)
# chain: ETDEEPEEPGRRGSFVEMVDNLRGKSGQGYYVEMTVGSPPQTLNILVDTGSSNFAVGAAPHPFLHRYYQRQLSSTYRDLRKGVYVPYTQGKWEGELGTDLVSIPHGPNVTVRANIAAITESDKFFINGSNWEGILGLAYAEIARPDDSLEPFFDSLVKQTHVPNLFSLQLCGAGFPLNQSEVLASVGGSMIIGGIDHSLYTGSLWYTPIRREWYYEVIIVRVEINGQDLKMDCKEYNYDKSIVDSGTTNLRLPKKVFEAAVKSIKAASSTEKFPDGFWLGEQLVCWQAGTTPWNIFPVISLYLMGEVTNQSFRITILPQQYLRPVEDVATSQDDCYKFAISQSSTGTVMGAVIMEGFYVVFDRARKRIGFAVSACHVHDEFRTAAVEGPFVTLDMEDCGYNIPQTDESTLMTIAYVMAAICALFMLPLCLMVCQWRCLRCLRQQHDDFADDISLLK
# Columns and labels:
# [1] = biological target: Swedish mutant P13-P5′ peptide with P1′ aspartic acid replaced with a leucine (D→L), P05067
# [2] = biological target: Swedish mutant P13-P5′ peptide with P1′ aspartic acid replaced with a valine (D→V), P05067
# Swedish mutant P13-P5′ peptide with P1′ aspartic acid replaced with a valine (D→V), P05067, sequence (P05067 whole entry, looked up, change not shown, tested part not stated): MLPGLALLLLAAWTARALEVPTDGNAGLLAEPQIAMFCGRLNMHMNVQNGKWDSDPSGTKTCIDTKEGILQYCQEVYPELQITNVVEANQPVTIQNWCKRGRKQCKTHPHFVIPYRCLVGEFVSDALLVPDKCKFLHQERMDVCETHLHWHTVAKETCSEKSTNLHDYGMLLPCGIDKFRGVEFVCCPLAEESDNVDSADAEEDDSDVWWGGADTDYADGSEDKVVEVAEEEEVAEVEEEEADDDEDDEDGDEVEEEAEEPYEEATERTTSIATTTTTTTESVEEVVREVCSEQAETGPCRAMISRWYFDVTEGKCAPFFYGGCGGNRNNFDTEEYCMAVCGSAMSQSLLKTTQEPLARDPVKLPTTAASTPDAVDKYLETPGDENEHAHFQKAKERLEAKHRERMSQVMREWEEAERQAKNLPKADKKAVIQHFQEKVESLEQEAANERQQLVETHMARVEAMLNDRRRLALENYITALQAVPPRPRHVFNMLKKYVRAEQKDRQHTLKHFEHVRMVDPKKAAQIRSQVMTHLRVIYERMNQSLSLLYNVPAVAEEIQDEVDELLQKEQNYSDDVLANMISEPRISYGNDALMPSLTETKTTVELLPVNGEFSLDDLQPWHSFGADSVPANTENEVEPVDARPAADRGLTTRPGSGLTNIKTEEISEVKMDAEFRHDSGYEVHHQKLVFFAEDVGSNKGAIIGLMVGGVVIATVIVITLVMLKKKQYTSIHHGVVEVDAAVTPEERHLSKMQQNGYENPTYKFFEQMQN
# Swedish mutant P13-P5′ peptide with P1′ aspartic acid replaced with a leucine (D→L), P05067, sequence (P05067 whole entry, looked up, change not shown, tested part not stated): as above
protein,measurement,setting,value
B1,substrate concentration dependence of hydrolysis by brain β-secretase,[1],show saturation at a lower concentration than the parent Swedish peptide
same,substrate concentration dependence of hydrolysis by brain β-secretase,[2],show saturation at a lower concentration than the parent Swedish peptide

# Reference: patent US7456007
